What all share (test): purified protein
Substrate in data set [1]: CCn1c(=NN=c2sc3cc(S(=O)(=O)O)ccc3n2CC)sc2cc(S(=O)(=O)O)ccc21
The format is biochemical, Aureobasidium bupleuri. The following applies: pH 3.5, 30 °C, 0.2-4.0 mM substrate.

Substrate in data set [2]: COc1cc(C=NN=Cc2cc(OC)c(O)c(OC)c2)cc(OC)c1O
The format is biochemical, Aureobasidium bupleuri. The following applies: pH 7.0, 30 °C, 5.5-40.0 µM substrate.

Substrate in data set [3]: COc1cc(/C=C/C(=O)O)cc(OC)c1O
The class given is biochemical, Aureobasidium bupleuri. The following applies: pH 6.5 (abstract prints optimum pH 6.0), 30 °C, 3.0-150 µM substrate.

Substrate in data set [4]: COc1ccccc1O
The following applies: pH 5.5, 30 °C, 2.5-20.0 mM substrate.

The results in this text go back to paper PMC8431773, “Novel Cold-Adapted Recombinant Laccase KbLcc1 from Kabatiella bupleuri G3 IBMiP as a Green Catalyst in Biotransformation” (International Journal of Molecular Sciences, 2021).

B1: KbLcc1 (Aureobasidium bupleuri) (protein)
chain: MHLQKLSGLCLLAFASVSWADAVPGDRYLWGADRMGKMVRRATTTSKASSTTAKASTSSVKTSSVSSASSKSSSNIVASVSSSPPASSASSASSTSSLVADAACTHGPNSRACWGNGYSIKTDFDLKHPTTGNTVTYNLEITNTTCNPDGNGDMPCYLINNQFPGPTIVADWGDKVIINVKNSLQNNGTSLHWHGVRQLSSVGSDGVGGITECPIAPGQSRTYSFLATQFGTSWYHSHYSSQYGMGVVGQVVINGPSSSNYDIDLGTFPITDLYYGLANNVNEMTLHNLQNNLPPPDGSNILVNGKGKSAKGGSYSQMSLTKGKKHRLRLINTSVDNAVRVKLDGHSFTVMSADFIPIKPLTNQGWILLAVGQRYDVVFTANQTPGNYFFRAEVATDCFSGNTGKGRALFTYSEVTAAEPTDSNEVAPTNGCTELNTVPYWTQAVDQSQYAAQVKTLKTGVAPGLTTNGQNFALWNLDTRAMMVRWDRPTIQYVFEGNTSYPDPYAVIEIPTEGTWTYWLIQMGPQNPPLPHPIHLHGHDFFVLGSGAGTFDATTAVLNFANPPRRDTSILPGLGWLLISFPANNPGIWLMHCHIAWHISEGLGVQFIEAKNSIAMPDKTTFNAECDSWRTYSKNMAWPQIDSGL
notes: full ORF of 649 residues (1938 bp, intron removed) cloned from its own ATG behind alpha-factor secretion signal (pPINKalpha-HF); tag not given; secreted from Pichia pastoris (PichiaPink strain 1)
What is called Km is the substrate concentration at which the rate is half of its maximum. The term Vmax denotes the top rate of the reaction or transport when substrate is in excess. What is called kcat is the number of substrate molecules converted per active site and unit of time at saturation. For orientation: kcat/Km means the second-order rate constant that governs catalysis at low substrate concentration. For B1, in the data set “purified protein [1]”, the Km is 580 µM, the Vmax was determined as 34.2 µmol/min/mg, the kcat was 39.6 s⁻¹ and the kcat/Km amounted to 68400 M⁻¹ s⁻¹. In “purified protein [2]”, the Km was determined as 21 µM, the Vmax is 33 µmol/min/mg, the kcat is 38.3 s⁻¹ and the kcat/Km was 1.81e+06 M⁻¹ s⁻¹. Besides, in “purified protein [3]”, the Km is 15 µM, the Vmax came to 1.39 µmol/min/mg, the kcat was 1.61 s⁻¹ and the specificity constant (kcat/Km) came to 109000 M⁻¹ s⁻¹. For the same protein, in “purified protein [4]”, the Km amounted to 13280 µM, the maximal velocity (Vmax) was found to be 4.7 µmol/min/mg, the kcat was 5.45 s⁻¹ and the kcat/Km came out at 410 M⁻¹ s⁻¹.
